Tests used:
[1] = molecular target: n-Bu-Val-Ala-Nle-Ser-Tyr(NO2)-NH2
[2] = molecular target: Abz-Val-Ala-Aib-Ser-Tyr(NO2)-Asp-NH2
[3] = molecular target: H-Ala-Nle-Ser-Tyr(NO2)-Asp-NR2
[4] = molecular target: Abz-Val-Ala-Cha-Ser-Tyr(NO2)-Asp-NH2
[5] = molecular target: Abz-Cha-Ala-hLeu-Ser-Tyr(NO2)-Asp-NH2
[6] = molecular target: Abz-Val-Ala-hLeu-Ser-Tyr(NO2)-Asp-NH2
[7] = molecular target: H-Val-Ala-Nle-Ser-Tyr(NO2)-NH2
[8] = molecular target: Abz-p.Aba-Nle-Ser-Tyr(NO2)-Asp-NH2
[9] = molecular target: Abz-Val-Ala-Nle-Ser-Tyr(NO2)-NH2
[10] = molecular target: Abz-2.Naph-Val-Ala-Nle-Ser-Tyr(NO2)-Asp-NH2
[11] = molecular target: Ac-Val-Ala-Nle-Ser-Tyr(NO2)-NH2
[12] = molecular target: Abz-Val-ACP-hLeu-Ser-Tyr(NO2)-Asp-NH2
[13] = molecular target: Abz-Val-Ala-ACH-Ser-Tyr(NO2)-Asp-NH2
[14] = molecular target: Abz-Val-Ala-Nle-Ser-NH2
[15] = molecular target: Abz-Val-Ala-Lys-Ser-Tyr(NO2)-Asp-NH2
[16] = molecular target: Abz-Phe-Val-Ala-Nle-Ser-Tyr(NO2)-Asp-NH2
[17] = molecular target: Abz-Bip-Ala-hLeu-Tyr-Tyr(NO2)-Asp-NH2
[18] = molecular target: Abz-Bip-Ala-hLeu-3pyr-Tyr(NO2)-Asp-NH2
[19] = molecular target: H-Val-Ala-Nle-Ser-TyrNO2-ASp-NH2
[20] = molecular target: Abz-Hyp-Val-Ala-Nle-Ser-Tyr(NO2)-Asp-NH2
[21] = molecular target: Abz-1.Naph-Val-Ala-Nle-Ser-Tyr(NO2)-Asp-NH2
[22] = molecular target: Abz-2Nal-Ala-hLeu-Ser-Tyr(NO2)-Asp-NH2
[23] = molecular target: Abz-Lys-Val-Ala-Nle-Ser-Tyr(NO2)-Asp-NH2
[24] = molecular target: Chex-Val-Ala-Nle-Ser-Tyr(NO2)-NH2
[25] = molecular target: Abz-Val-Ala-DNle-Ser-Tyr(NO2)-Asp-NH2
[26] = molecular target: Abz-Bip-Ala-hLeu-Asp-Tyr(NO2)-Asp-NH2
[27] = molecular target: Bz-Val-Ala-Statine-Ser-eAha-NH2
[28] = molecular target: Abz-Val-Ala-Nle-Ser-Tyr(NO2)-Asp-NH2
[29] = molecular target: Abz-Val-3pyr-hLeu-Ser-Tyr(NO2)-Asp-NH2
[30] = molecular target: Abz-Bip-Ala-hLeu-Bu^tGly-Tyr(NO2)-Asp-NH2
[31] = molecular target: Abz-Bip-Ala-hLeu-Hyp-Tyr(NO2)-Asp-NH2
[32] = molecular target: Abz-Nle-Ser-Tyr(NO2)-Asp-NH2
[33] = molecular target: Abz-3pyr-Ala-hLeu-Ser-Tyr(NO2)-Asp-NH2
[34] = molecular target: H-Ala-Nle-Ser-Tyr(NO2)-ASP-NH2
[35] = molecular target: Abz-Cmpi-Nle-Ser-Tyr(NO2)-ASP-NH2
[36] = molecular target: Abz-Val-DGln-hLeu-Ser-Tyr(NO2)-Asp-NH2
[37] = molecular target: Abz-Val-Ala-Nle-Ser-eAHA-Asp-NH2
[38] = molecular target: Abz-Val-Tic-hLeu-Ser-Tyr(NO2)-Asp-NH2
[39] = molecular target: Abz-Val-Ala-(NMe)Nle-Ser-Tyr(NO2)-Asp-NH2
[40] = molecular target: Abz-Val-Ala-Hyp-Ser-Tyr(NO2)-Asp-NH2
[41] = molecular target: Abz-Val-DAla-hLeu-Ser-Tyr(NO2)-Asp-NH2
[42] = molecular target: Abz-Bip-Ala-hLeu-Abu-Tyr(NO2)-Asp-NH2

B1: Der pI (protein)
chain: TNACSINGNAPAEIDLRQMRTVTPIRMQGGCGSCWAFSGVAATESAYLAYRNQSLDLAEQELVDCASQHGCHGDTIPRGIEYIQHNGVVQESYYRYVAREQSCRRPNAQRFGISNYCQIYPPNVNKIREALAQTHSAIAVIIGIKDLDAFRHYDGRTIIQRDNGYQPNYHAVNIVGYSNAQGVDYWIVRNSWDTNWGDNGYGYFAANIDLMMIEEYPYVVIL
- Measured Km (µM) [1]: NM^a
- cleavage rate (rank order) [1]: Bz>n-But>Piv>Bz(2-carboxy)>Abz
- Measured Km (µM) [2]: NS
- Measured Km (µM) [3]: NS
- Measured Km [4]: 5 µM
- Measured Km [5]: 9 µM
- Measured Km [6]: 4 µM
- Measured Km (µM) [7]: NS
- Measured Km (µM) [8]: NS
- Measured Km (µM) [9]: NM
- cleavage rate (rank order) [9]: Bz>n-But>Piv>Bz(2-carboxy)>Abz
- Measured Km (µM) [10]: NM
- Measured Km (µM) [11]: NS
- Measured Km (µM) [12]: NS
- Measured Km (µM) [13]: NS
- Measured Km (µM) [14]: NM
- Measured Km [15]: 14 µM
- Measured Km (µM) [16]: NM
- Measured Km [17]: 3 µM
- Measured Km [18]: 4 µM
- Measured Km (µM) [19]: NS
- Measured Km (µM) [20]: NS
- Measured Km [21]: 17 µM
- Measured Km [22]: 15 µM
- Measured Km [23]: 15 µM
- Measured Km (µM) [24]: NM^a
- Measured Km (µM) [25]: NS
- Measured Km [26]: 5 µM
- Measured Km (µM) [27]: NS
- Measured Km [28]: 12 µM
- kcat/Km [28]: 35000 M⁻¹ s⁻¹
- Measured Km (µM) [29]: NS
- Measured Km [30]: 4 µM
- Measured Km [31]: 4 µM
- Measured Km (µM) [32]: NS
- Measured Km [33]: > 10 µM
- Measured Km (µM) [34]: NS
- Measured Km (µM) [35]: NS
- Measured Km (µM) [36]: NS
- Measured Km (µM) [37]: NM
- Measured Km (µM) [38]: NS
- Measured Km (µM) [39]: NS
- Measured Km (µM) [40]: NS
- Measured Km (µM) [41]: NS
- Measured Km [42]: 1.7 µM

Reference: patent US20030092067A1
